Test results taken from the supplement of paper PMC10065799, “High-throughput profiling of sequence recognition by tyrosine kinases and SH2 domains using bacterial peptide display” (eLife, 2023).

Legend:
[1] = tested on: AncSZ; assay: phosphorylation enrichment, bacterial display (enrichment ratio); higher = better substrate or ligand; peptides without Tyr show the background
[2] = target: EPHB1 (UniProt P54762); assay: as above
[3] = target: EPHB2 (UniProt P29323); assay: as above
[4] = target: FGFR1 (UniProt P11362); assay: as above
[5] = target: FGFR3 (UniProt P22607); assay: as above
[6] = tested on: Fer (mouse); assay: as above
[7] = target: Fes (UniProt P07332); assay: as above
[8] = target: Fyn (UniProt P06241); assay: as above
[9] = target: Hck (UniProt P08631); assay: as above
[10] = target: Jak2 (UniProt O60674); assay: as above
[11] = target: MERTK (UniProt Q12866); assay: as above
[12] = tested on: c-Abl (mouse); assay: as above
[13] = tested on: c-Src; assay: as above
[14] = target: Grb2 SH2 (UniProt P62993); assay: SH2 binding enrichment of the phosphorylated peptide, bacterial display (enrichment ratio); higher = better substrate or ligand; peptides without Tyr show the background
[15] = target: SHP2-C SH2; assay: as above
[16] = target: c-Src SH2; assay: as above
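Throughout, for SH2 binding enrichment of the phosphorylated peptide, bacterial display: peptide library displayed on the E. coli surface as eCPX fusions, selected cells deep-sequenced, score is each peptide's frequency after selection divided by its frequency in the input.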
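Throughout, for phosphorylation enrichment, bacterial display: 11-residue human phosphosite peptides and single-mutation variants displayed on the E. coli surface, counted by deep sequencing, each peptide's frequency after selection divided by its frequency in the unselected input library; frequency after pTyr selection over input frequency; kinase dosed for 20-30% of maximal phosphorylation in three min.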

Chain of FGFR1 (P11362 whole entry, looked up): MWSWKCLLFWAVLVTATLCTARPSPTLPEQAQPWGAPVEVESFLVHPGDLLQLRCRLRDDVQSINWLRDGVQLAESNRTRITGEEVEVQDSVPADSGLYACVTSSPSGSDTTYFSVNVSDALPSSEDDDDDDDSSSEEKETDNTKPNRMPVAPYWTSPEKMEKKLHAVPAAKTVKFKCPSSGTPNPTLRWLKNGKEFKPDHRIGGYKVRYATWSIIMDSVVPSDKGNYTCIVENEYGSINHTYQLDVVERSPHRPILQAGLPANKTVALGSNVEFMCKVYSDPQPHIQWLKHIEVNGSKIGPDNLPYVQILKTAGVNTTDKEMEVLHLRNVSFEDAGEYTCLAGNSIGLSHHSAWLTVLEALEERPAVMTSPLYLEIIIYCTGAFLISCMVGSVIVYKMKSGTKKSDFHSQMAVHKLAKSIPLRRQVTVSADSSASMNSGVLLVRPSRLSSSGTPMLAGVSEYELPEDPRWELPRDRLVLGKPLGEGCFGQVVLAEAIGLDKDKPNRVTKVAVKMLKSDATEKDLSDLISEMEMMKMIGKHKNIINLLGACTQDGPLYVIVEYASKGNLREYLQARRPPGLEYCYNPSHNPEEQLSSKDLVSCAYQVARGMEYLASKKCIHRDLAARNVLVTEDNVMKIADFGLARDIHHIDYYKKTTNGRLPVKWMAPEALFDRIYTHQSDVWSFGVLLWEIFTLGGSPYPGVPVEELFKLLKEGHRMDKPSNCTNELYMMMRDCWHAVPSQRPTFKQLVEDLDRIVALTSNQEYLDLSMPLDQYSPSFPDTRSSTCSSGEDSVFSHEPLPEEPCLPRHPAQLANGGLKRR
Chain of Hck (P08631 whole entry, looked up): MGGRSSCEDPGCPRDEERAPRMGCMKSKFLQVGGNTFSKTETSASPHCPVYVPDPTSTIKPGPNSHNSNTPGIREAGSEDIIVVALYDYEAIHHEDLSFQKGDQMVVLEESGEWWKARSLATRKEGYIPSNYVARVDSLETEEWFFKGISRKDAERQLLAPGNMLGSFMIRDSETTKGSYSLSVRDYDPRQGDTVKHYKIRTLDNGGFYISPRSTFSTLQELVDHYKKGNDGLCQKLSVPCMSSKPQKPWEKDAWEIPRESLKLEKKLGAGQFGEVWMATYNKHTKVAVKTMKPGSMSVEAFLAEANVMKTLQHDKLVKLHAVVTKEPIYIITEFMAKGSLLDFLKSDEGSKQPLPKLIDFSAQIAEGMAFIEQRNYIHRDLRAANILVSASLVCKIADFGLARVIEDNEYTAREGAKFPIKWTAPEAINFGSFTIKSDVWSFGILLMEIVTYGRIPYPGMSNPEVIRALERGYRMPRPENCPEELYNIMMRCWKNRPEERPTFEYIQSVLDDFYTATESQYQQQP
Chain of Grb2 SH2 (P62993 whole entry, looked up): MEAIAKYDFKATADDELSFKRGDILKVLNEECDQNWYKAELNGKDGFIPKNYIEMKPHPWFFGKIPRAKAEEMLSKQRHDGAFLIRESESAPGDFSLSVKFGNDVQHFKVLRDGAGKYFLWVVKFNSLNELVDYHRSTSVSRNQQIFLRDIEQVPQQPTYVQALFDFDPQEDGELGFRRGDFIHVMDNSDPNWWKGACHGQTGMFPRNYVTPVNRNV
Chain of Jak2 (O60674 whole entry, looked up): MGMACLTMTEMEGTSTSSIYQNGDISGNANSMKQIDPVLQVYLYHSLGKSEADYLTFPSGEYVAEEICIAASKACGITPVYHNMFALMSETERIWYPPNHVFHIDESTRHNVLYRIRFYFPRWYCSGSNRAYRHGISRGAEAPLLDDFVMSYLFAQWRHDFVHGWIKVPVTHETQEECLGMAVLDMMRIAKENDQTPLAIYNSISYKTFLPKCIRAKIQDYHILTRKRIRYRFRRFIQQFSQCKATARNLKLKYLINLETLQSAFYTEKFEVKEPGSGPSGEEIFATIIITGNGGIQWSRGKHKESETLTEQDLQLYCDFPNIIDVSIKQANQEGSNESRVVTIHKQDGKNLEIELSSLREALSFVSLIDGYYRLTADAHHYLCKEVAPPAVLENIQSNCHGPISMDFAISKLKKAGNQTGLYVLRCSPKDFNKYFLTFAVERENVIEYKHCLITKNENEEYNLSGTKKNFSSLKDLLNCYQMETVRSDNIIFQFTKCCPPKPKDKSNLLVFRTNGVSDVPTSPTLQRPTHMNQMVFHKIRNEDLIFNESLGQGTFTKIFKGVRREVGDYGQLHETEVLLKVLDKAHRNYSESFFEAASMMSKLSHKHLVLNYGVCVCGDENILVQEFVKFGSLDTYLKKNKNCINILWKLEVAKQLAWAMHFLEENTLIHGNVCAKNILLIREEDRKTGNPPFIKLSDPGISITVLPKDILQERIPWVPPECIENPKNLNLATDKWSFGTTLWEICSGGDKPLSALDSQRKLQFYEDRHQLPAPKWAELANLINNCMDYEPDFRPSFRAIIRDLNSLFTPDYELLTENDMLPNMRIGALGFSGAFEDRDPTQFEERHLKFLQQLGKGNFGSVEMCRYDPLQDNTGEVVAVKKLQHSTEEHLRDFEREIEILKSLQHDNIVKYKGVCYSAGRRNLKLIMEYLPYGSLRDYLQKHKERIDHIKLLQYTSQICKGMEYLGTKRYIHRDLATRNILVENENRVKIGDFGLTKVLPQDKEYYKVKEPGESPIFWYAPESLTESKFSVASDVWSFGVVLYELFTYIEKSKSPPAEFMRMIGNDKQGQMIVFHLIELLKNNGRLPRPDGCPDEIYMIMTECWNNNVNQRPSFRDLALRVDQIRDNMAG
Chain of Fes (P07332 whole entry, looked up): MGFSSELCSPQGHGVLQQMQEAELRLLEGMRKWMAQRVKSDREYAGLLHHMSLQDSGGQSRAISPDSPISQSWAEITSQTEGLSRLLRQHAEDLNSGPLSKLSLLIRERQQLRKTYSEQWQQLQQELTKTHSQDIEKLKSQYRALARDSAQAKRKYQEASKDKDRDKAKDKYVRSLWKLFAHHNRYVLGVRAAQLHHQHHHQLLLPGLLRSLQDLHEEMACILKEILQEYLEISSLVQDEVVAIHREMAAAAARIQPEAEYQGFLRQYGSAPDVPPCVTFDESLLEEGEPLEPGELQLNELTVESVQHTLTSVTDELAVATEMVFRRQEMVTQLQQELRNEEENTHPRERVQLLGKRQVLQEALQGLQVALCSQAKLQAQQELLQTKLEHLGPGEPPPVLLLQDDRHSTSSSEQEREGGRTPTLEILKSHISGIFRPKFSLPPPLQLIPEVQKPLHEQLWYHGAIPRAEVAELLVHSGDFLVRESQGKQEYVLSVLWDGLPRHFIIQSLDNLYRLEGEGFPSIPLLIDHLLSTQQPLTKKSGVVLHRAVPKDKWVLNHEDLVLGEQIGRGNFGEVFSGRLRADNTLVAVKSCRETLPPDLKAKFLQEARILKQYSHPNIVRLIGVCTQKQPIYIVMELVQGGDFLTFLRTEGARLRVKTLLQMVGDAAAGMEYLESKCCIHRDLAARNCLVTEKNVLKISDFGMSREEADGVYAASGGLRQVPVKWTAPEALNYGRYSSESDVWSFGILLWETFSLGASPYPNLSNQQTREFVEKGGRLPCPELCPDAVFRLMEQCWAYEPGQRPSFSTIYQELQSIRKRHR
Chain of EPHB2 (P29323 whole entry, looked up): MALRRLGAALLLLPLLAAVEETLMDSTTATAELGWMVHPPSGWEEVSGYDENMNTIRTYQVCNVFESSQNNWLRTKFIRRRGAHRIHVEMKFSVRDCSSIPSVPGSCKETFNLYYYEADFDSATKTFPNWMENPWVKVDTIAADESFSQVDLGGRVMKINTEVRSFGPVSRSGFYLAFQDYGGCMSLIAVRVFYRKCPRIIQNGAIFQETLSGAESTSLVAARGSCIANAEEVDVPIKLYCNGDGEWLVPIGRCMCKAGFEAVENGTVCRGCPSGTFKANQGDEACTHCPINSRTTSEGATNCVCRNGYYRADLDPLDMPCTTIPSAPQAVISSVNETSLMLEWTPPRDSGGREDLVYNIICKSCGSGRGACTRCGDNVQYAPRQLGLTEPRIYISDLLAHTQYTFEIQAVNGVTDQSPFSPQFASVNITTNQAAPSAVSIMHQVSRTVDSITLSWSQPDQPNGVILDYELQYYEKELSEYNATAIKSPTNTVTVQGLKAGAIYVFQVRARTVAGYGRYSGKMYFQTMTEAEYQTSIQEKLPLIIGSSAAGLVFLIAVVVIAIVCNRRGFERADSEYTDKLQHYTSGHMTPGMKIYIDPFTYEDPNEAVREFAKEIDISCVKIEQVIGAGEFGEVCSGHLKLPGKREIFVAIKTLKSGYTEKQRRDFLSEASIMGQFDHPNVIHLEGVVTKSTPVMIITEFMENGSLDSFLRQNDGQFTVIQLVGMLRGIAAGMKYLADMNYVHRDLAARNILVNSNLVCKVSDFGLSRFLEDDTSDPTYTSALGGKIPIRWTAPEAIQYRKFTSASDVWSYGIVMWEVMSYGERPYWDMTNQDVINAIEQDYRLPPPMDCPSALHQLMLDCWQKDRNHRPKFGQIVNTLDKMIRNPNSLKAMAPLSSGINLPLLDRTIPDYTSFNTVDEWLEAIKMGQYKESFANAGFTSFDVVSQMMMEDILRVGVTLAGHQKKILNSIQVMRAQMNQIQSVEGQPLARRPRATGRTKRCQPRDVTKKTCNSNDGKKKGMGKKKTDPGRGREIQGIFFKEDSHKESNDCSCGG

Sequence	phosphorylation enrichment [1]	phosphorylation enrichment [2]	phosphorylation enrichment [3]	phosphorylation enrichment [4]	phosphorylation enrichment [5]	phosphorylation enrichment [6]	phosphorylation enrichment [7]	phosphorylation enrichment [8]	phosphorylation enrichment [9]	phosphorylation enrichment [10]	phosphorylation enrichment [11]	phosphorylation enrichment [12]	phosphorylation enrichment [13]	SH2 binding enrichment [14]	SH2 binding enrichment [15]	SH2 binding enrichment [16]
QMVDMYASSFM [AVPR2_Y124_G122D_YF]	1.29	0.992	0.805	0.779	0.923	0.9	1.31	1.35	1.58	1.47	0.707	1.2	2.34	1.07	0.575	0.707
QNTGVYYDLYG [PTPN11_Y62_D61V]	2	6.99	5.61	16.3	14.5	3.07	1.49	8.43	7.99	2.61	10.9	1.23	7.18	1.38	0.892	4.65
QPGDICHQTWA [GBA_Y244_Y244C]	0.796	0.515	0.45	0.507	0.608	0.462	1.08	0.478	0.337	0.906	0.306	0.741	0.369	0.776	0.603	0.732
QRALLYEDALF [UNC13D_Y56_YF]	1.21	10.4	8.85	0.68	0.896	16.1	2.16	1.54	1.45	0.867	4.86	0.878	1.5	0.828	0.573	0.593
QRIYQYIRSRF [DYRK1B_Y273_Q275R]	0.887	0.9	0.601	0.677	0.818	0.734	1.17	0.809	1.05	0.817	1.01	1.27	1.16	0.844	0.428	0.369
QRKPSYNQLAS [BRCA2_Y71]	0.449	0.344	0.53	0.543	0.642	0.244	0.53	0.399	0.345	0.598	0.392	0.471	0.415	1.59	1.14	1.06
QRKRAYVEIEF [MAK16_Y282_YF]	0.926	0.838	0.594	0.617	0.785	0.48	1.42	0.655	0.398	0.723	0.643	0.631	0.63	1.55	2.48	3.17
QRKRAYVEIEY [MAK16_Y282]	0.696	0.362	0.463	0.623	0.663	0.441	0.752	0.585	0.672	0.73	0.416	2.01	0.68	0.675	0.718	4.61
QRRFVYFFSFL [PTEN_Y176_YF]	1.6	0.563	0.61	0.573	0.908	1.91	1.46	0.656	0.57	1.15	0.618	1.12	0.567	1.13	0.821	0.642
QTPVLYAMLDH [MPZ_Y220]	0.853	10.7	8.88	3.44	2.84	9.39	1.02	5.21	7.14	0.845	10.7	2.67	4.54	0.837	2.71	0.922
QWRTKYEMDAI [MYH7_Y1375_T1377M]	1.12	0.479	0.4	0.58	0.843	0.365	0.964	0.773	0.561	0.519	0.384	0.5	0.344	0.891	0.522	0.549
QWRTKYETDTI [MYH7_Y1375_A1379T]	0.819	0.616	0.797	0.473	0.757	0.5	1.49	0.489	0.624	1.56	0.414	0.798	0.56	0.769	0.735	0.485
RALCHYYKLNI [ETV6_Y401_R399C]	1.88	1.09	1.16	9.12	5.19	1.29	1.99	0.947	1.59	6.35	3.95	2.78	2.63	1.74	1.23	1.45
RAYSWYQHQRA [NDST1_Y714]	1.03	0.538	0.716	0.472	0.792	0.641	1.16	0.242	0.582	1.06	0.619	0.964	0.527	1.58	1.79	1.18
REDIFYTSKLW [AKR1C2_Y81]	1.07	0.978	0.796	0.592	1.01	0.543	1.12	0.692	0.77	0.947	0.645	0.607	0.438	1.04	0.838	0.598
REQREYLDQLN [CCDC88B_Y1277]	0.917	0.666	0.663	0.693	0.66	0.532	0.984	0.624	0.604	0.578	0.433	2.21	0.521	0.589	0.47	0.425
REVVNYVQKRN [RMI1_Y450]	0.931	0.622	0.595	0.36	0.521	0.554	1.08	0.541	0.696	0.598	0.869	0.975	0.582	1.1	0.787	0.632

Sequence	phosphorylation enrichment [1]	phosphorylation enrichment [2]	phosphorylation enrichment [3]	phosphorylation enrichment [4]	phosphorylation enrichment [5]	phosphorylation enrichment [6]	phosphorylation enrichment [7]	phosphorylation enrichment [8]	phosphorylation enrichment [9]	phosphorylation enrichment [10]	phosphorylation enrichment [11]	phosphorylation enrichment [12]	phosphorylation enrichment [13]	SH2 binding enrichment [14]	SH2 binding enrichment [15]	SH2 binding enrichment [16]
RFLERDIYNRE [HLA-DPB1_Y57_Y57D]	2.71	1.74	1.48	1.18	2.92	1.85	2.16	5.19	10.7	0.764	1.26	0.787	1.8	1.08	0.882	0.877
RFLERYIFNRQ [HLA-DPB1_Y57_E62Q_YF]	1.57	0.603	0.29	0.448	0.642	0.75	1.63	0.535	0.678	1.71	0.756	1.36	0.893	0.901	0.833	0.577
RFLERYIYNPE [HLA-DPB1_Y57_R61P]	1.1	0.755	0.675	0.55	0.671	0.636	1.15	1.75	2.11	0.935	1.5	0.68	3.08	1.17	1.28	0.966
RFLRGYQQDAF [HLA-A_Y137_R138Q_YF]	1.11	0.796	0.518	0.803	0.677	0.518	0.684	0.685	0.693	0.965	0.558	0.81	0.603	0.58	0.581	0.374
RFVTRSIFNRE [HLA-DQB1_Y62_Y62S_YF]	1.14	0.61	0.718	0.472	0.711	0.652	0.827	0.498	0.632	0.723	0.577	0.402	0.578	0.72	0.588	0.39
RGNMFYENSFA [EGFR_Y113_YF]	1.21	0.483	0.663	0.785	0.744	2.57	0.836	0.997	0.479	1.01	0.727	0.533	0.922	18.9	1.26	3.16
RHCSGYVLIAM [EFR3A_Y73_R70C]	0.885	0.51	0.403	0.596	0.669	0.501	0.879	0.376	0.472	0.846	0.268	0.575	0.517	1.01	1.05	1.05
RIGRKYKKVRF [F8_Y442]	0.47	0.338	0.511	0.352	0.364	0.298	0.341	0.36	0.356	0.432	0.351	0.298	0.385	0.488	0.275	0.254
RKEAQYMLENE [SLC16A6_Y224]	1.52	0.605	0.523	0.503	0.827	0.445	1.32	0.642	0.803	1.22	0.619	0.997	0.899	0.8	0.791	0.703
RLAKTYKTTLE [ALB_Y377_E378K]	0.564	0.324	0.509	0.513	0.446	0.624	0.632	0.253	0.388	0.72	0.365	1.18	0.441	1.01	0.669	0.672
RLGDLYEEEMR [VIM_Y150]	0.72	0.615	0.691	0.48	0.487	0.377	1.14	0.487	0.379	0.938	0.335	0.585	0.425	0.876	0.567	0.848
RLGNQHVNVMN [SLC3A1_Y461_Y461H]	0.793	0.694	0.612	0.567	0.691	0.504	1.09	0.627	0.505	1.09	0.53	0.947	0.717	0.987	0.762	0.429
RLLVVYHWTQR [HBD_Y36_P37H]	1.42	0.785	0.514	0.458	0.75	0.659	1.58	0.46	0.85	1.17	0.666	1.32	0.566	1.49	1.27	1.27
RLQEDYDHSYY [ESD_Y258_G257D]	1.78	0.814	0.811	0.923	1.03	0.572	1.55	0.824	0.781	1.56	0.754	0.943	1.06	0.932	0.741	1.16
RLVTRYIYNRE [HLA-DQB1_Y62_Y58L]	0.697	0.443	0.481	0.86	0.739	0.408	0.822	0.673	0.424	0.493	0.507	0.447	0.532	0.836	0.906	0.39
RMDGKYACSFT [FLNB_Y704_T703K_YF]	1.38	0.882	0.977	1.1	1.45	0.701	1.28	0.756	0.964	0.929	0.589	0.902	0.491	0.935	0.638	0.566
